Biological target: T1, full length human p53 fused in frame with the B42D activation domain (pJG4-5) (human, UniProt P04637 1-393)
T1 construct: mature; Yeast two hybrid prey
Test: yeast two hybrid, X-gal colony colour
Text: To determine whether protein-protein interactions are involved, and which part of Msx1 are involved if any, in the stabilization of p53 leading to apoptosis of cells by Msx1, yeast two hybrid assays were used as previously described (Gyuris et al., Cell 75: 791-803, 1993; Part et al., ibid).
Briefly, to this end, four Msx1 constructs (FIG. 3A top) were made as described in Example 1. DNA fragments encoding full length human HPV-E6 and p53 proteins were isolated by PCR from the cDNA library derived from HeLa cells (Clontech) and cloned into pJG4-5 at unique EcoRI and XhoI sites for in-frame fusion of each cDNA with B42D activation domain. The truncated constructs of Msx1 as shown in FIG. 3A were obtained by PCR using specific set of primers designed for each deletion product and pCB6+/Msx1 as a template. Each amplified Msx1 fragment was then inserted into a pGlida vector (Clontech) using BamHI and XhoI sites to express it as a fusion protein with LexA. Each pGlida and pJG4-5 fusion construct prepared was then introduced into the testing yeast strain EGY48. […] The binding activity between HPV-E6 and Msx1 was also determined quantitatively by the relative expression level of β-galactosidase as described (Rho, S B et al., FEBS Lett 557: 57-63, 2004; Rho, S B et al., PNAS USA 93:10128-33,1996).

binding result: no binding
B1: Msx1 construct lacking homeodomain (1-165) expressed as a fusion protein with LexA (other)
chain: MTSLPLGVKVEDSAFGKPAGGGAGQAPSAAAATAAAMGADEEGAKPKVSPSLLPFSVEALMADHRKPGAKESALAPSEGVQAAGGSAQPLGVPPGSLGAPDAPSSPRPLGHFSVGGLLKLPEDALVKAESPEKPERTPWMQSPRFSPPPARRLSPPACTLRKHKT
notes: Yeast two hybrid bait; not shown: LexA as encoded by the pGlida vector (Clontech)

— patent US20090088402A1 (SUNGKYUNKWAN UNIVERSITY FOUNDATION FOR CORPORATE …, published 2009)
